Experimental data taken from the supplement of paper PMC9170038.

Tested on: MS2 coat protein
Assay: apparent KD of MS2 coat protein; designed switch direction (-1 OFF switch, 1 ON switch): -1; higher = weaker reporter binding
Method in brief: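 An oligonucleotide input, 200 uM small-molecule ligand, or no input was present during titration of SNAP-549-labelled MS2 coat protein, which was doubled from 0.7 or 1.5 nM to 3 µM. Designed RNA switches had been transcribed on Illumina chips by stalled E. coli RNA polymerase. Apparent KD per design is the median over clusters of curves fitted to normalised cluster fluorescence.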

[1] = input ligand: microRNA oligo, concentration not stated
[2] = Eterna round: R95, input ligand: FMN 200 uM
[3] = Eterna round: R95, input ligand: microRNA oligo, concentration not stated
[4] = Eterna round: R95, input ligand: none

Row | Sequence | apparent KD of MS2 coat protein (input ligand: FMN 200 uM) [µM] | apparent KD of MS2 coat protein [1] [µM] | apparent KD of MS2 coat protein (input ligand: none) [µM] | apparent KD of MS2 coat protein [2] [µM] | apparent KD of MS2 coat protein [3] [µM] | apparent KD of MS2 coat protein [4] [µM]
1 | UGUUGUCGCGCAGGAUAUGAGGAUCACCCAUAUAAAGGAUAUGAAAAGAAGGUUCUGAGGAUCACCCAGAAGGGCGGGACAACU [pwkr exNG2 2xF5 2xFMN.18] (Eterna round: R96, puzzle: Exclusion NG 2) | 0.347 | 0.049 | 0.0626 | – | – | –
2 | UAAAGUAUAUAGGAUAUCUAGCUGGAUACAGCUAGAGAAGGAUGUACAUGAGGAUCACCCAUGUAAAUCAGUGA [Ex6/14-A3] (Eterna round: R97, puzzle: Exclusion 6) | 0.0339 | – | 0.0165 | – | – | –
3 | UUGAUGUGAGGAUAUAUAUGGUGGUUUUUUUAUUUUUUAUUACUUGAGGAUCACCCAAGUAGAAGGCGCUACGU [JR_Ex2_Sub069] (Eterna round: R97, puzzle: Exclusion 2) | 0.0294 | – | 0.0393 | – | – | –
4 | GAGUUAGCGUGUGGAAUAUACAUGAGGAUCACCCAUGUUAGCUUAUAUAUUGCUCGUCUUAUAACAACAAUUAACUG [Mod JX-Electric-eye3] (Eterna round: R97, puzzle: Sensor, turn-off variant 1) | 0.138 | – | 0.143 | – | – | –
5 | GCCAGCGUAUAGGAUAUGGCCGGCUUUUGAGUACCAGAAGGAUACACAUGAGGAUCACCCAUGUGGCAUUCGUC [Eternabot (L2) Solution 71] (Eterna round: R97, puzzle: Exclusion 6) | 0.0205 | – | 0.0147 | – | – | –
6 | GGAAAGCAAGGAUAUACAAGGAGACGAUGGAAAGUAGAGCGACAUGAGGAUCACCCAUGUAGAAGGUGCGAGAG [JR_Exclu2_Sub038] (puzzle: Exclusion 2) | – | – | – | 0.0407 | 0.0391 | 0.0348
7 | UGUUGUUCAGGAUAUGAUGUAUUAUACAUGAGGAUCACCCAUGUGGGUCCUGAUUUGGCGUCAGAAGGGAAUGUUG [salish99_ex5_r4_110] (Eterna round: R97, puzzle: Exclusion 5) | 0.205 | – | 0.15 | – | – | –
8 | AUUUUGUGAGGAUAUGUGGCUUCGAUCGUAAAAACGAGGCUACAGAAGGCACAUGAGGAUCACCCAUGUUCCUA [salish99_ex4_r4_119] (Eterna round: R97, puzzle: Exclusion 4) | 0.194 | – | 0.024 | – | – | –
9 | AAGAAACAUGAGGAUCACCCAUGUGAGGAUAUGAGGAAGAAAAGAAAAGAAAGAAGAAUCAGAAGGCACAAAGG [salish99-ex1_r3_049] (puzzle: Exclusion 1) | – | – | – | 0.0563 | 0.0365 | 0.0436
10 | CUCGUGCAGCAAAGCUGUACGAGUACAUGAGGAUCACCCAUGUAGGAUAUGGUACGCAAAGCGUGCUAGAAGGACGUGUGUAAG [Mat - Exclusion NG 3 - Mod of JL - D92] (Eterna round: R96, puzzle: Exclusion NG 3) | 0.118 | 0.0334 | 0.0477 | – | – | –
11 | GUGUAGAGAGGAUAUACAUGAGGAUCACCCAUGUGAAUAAGAUAGAAUAAGAUAAAGUGUAGAAGGCUUAGUGU [Excluse me!!! 20 - Jieux - Exclusion 3] (puzzle: Exclusion 3) | – | – | – | – | 0.0318 | –
12 | UUGGCAGGUUUUUUGCUCGACAUGAGGAUCACCCAUGUUGCGUGGGUUGUGUGUGUGCGGUGUAUAUAUAUGGUCCU [-24.8, -48.1 kcal, A 14%] (Eterna round: R97, puzzle: Sensor, turn-off variant 1) | 0.48 | – | 0.644 | – | – | –
13 | UUCUAACGAGGAUAUCGAUGGUGGAACAUGAGGAUCACCCAUGUAUGAGAUAUUGUAGUUCGAGAAGGCGUUCAGU [JR_E5_Sub057] (Eterna round: R96, puzzle: Exclusion 5) | 0.0359 | 0.0323 | 0.0486 | – | – | –
14 | GAUUGACAUGAGGAUCACCCAUGUGAGGAUAUCGGCCGGACCGUGUUGGCUUCCGUCGCGAGAAGGCGCAUAGG [Exclusion 1 V39] (puzzle: Exclusion 1) | – | – | – | 0.173 | 0.0822 | 0.101
15 | UAUGAUUUAGGAUAUUGUACUGCUGACAUGAGGAUCACCCAUGUAUGCUAACUCGGCCGUCGAGAAGGAAAUUAUG [BotMod 28 - Jieux - Exclusion 5] (Eterna round: R97, puzzle: Exclusion 5) | 0.0261 | – | 0.0526 | – | – | –
16 | GAAAAUGUGGAGGAUAUCGACUUCGAAAGAAGUCGAGAAGGCCACACAUGAGGAUCACCCAUGUGAUGCCUAUA [Omei Ex6 H8] (Eterna round: R97, puzzle: Exclusion 6) | 0.774 | – | 0.23 | – | – | –
17 | UUUGUUGUUGUGAGGAUAUCGUUGAUUUUUUGAAACGAGAAGGCACAUGAGGAUCACCCAUGUUUGUUGUUGGU [JR_BMOE4_Sub058] (puzzle: Brourd's mod of Exclusion 4) | – | – | – | – | 0.0588 | –

Row | Sequence | apparent KD of MS2 coat protein (input ligand: FMN 200 uM) [µM] | apparent KD of MS2 coat protein [1] [µM] | apparent KD of MS2 coat protein (input ligand: none) [µM] | apparent KD of MS2 coat protein [2] [µM] | apparent KD of MS2 coat protein [3] [µM] | apparent KD of MS2 coat protein [4] [µM]
18 | UCGUGGUAACUCAGCAGUUUCCUGAGCGGAGGAACUUUGACAUGAGGAUCACCCAUGUUGCUUUUUGCUCAUCUUAA [JR_SV3TOV2_Sub042] (puzzle: Sensor v3, turn-off variant 2) | – | – | – | 0.0209 | 0.0403 | 0.0161
19 | CUGAAAUUCGUAAGGAUAUGUUCCAUCAAAUAGGAGCAGAAGGUACAUGAGGAUCACCCAUGUCAGUAGAUCCA [Eternabot (L1) Solution 47] (Eterna round: R97, puzzle: Brourd's mod of Exclusion 4) | 0.13 | – | 0.0402 | – | – | –
20 | AAUAACAGAGGAUAUACUAUUUUAUGUGUUUGUUAUUUUGAACAUGAGGAUCACCCAUGUAGAAGGCUGAUUAA [JMF 49] (puzzle: Exclusion 2) | – | – | – | – | 0.0394 | –
21 | UUUUUCGAACAAGCUUCGUACAUGAGGAUCACCCAUGUUGGUAGAUUUGAGUAGGUUUGGAUGUAAGCUCGUCUUAU [JR_SV3TOV1_Sub082] (puzzle: Sensor v3, turn-off variant 1) | – | – | – | 0.0987 | 0.313 | 0.129
22 | GGCAGUACAGAGGAUAUCUGGACCUACAGGAAUAGAGAAGGUUGUACAUGAGGAUCACCCAUGUCGACACUCAG [Eternabot (Original) Solution 11] (Eterna round: R97, puzzle: Exclusion 6) | 0.0132 | – | 0.0137 | – | – | –
23 | UACUUCUGAGGAUAUACAUGAGGAUCACCCAUGUUGAUACCGACCUAAAGUCCAUUACGUAGAAGGCAGCAGUG [Eternabot (L1) Solution 91] (Eterna round: R97, puzzle: Exclusion 3) | 0.0354 | – | 0.0236 | – | – | –
24 | AUAAGUGAUAAGGAUAUUACUAGCUUCGGCUAGUGAGAAGGUAUCACAUGAGGAUCACCCAUGUGUUCCAAUAA [Ex6/7-B1] (Eterna round: R97, puzzle: Exclusion 6) | 0.27 | – | 0.119 | – | – | –
25 | UUGACGUCGUCAGGAUAUAGUUUUAAUGUCAUGCUUUUGUUUUUACAUGAGGAUCACCCAUGUCGCUAGAAGGGACUAAAGAUU [JR_ExcNG2_Sub012] (Eterna round: R96, puzzle: Exclusion NG 2) | 0.0335 | 0.0328 | 0.035 | – | – | –
26 | GUCUAACAUGAGGAUCACCCAUGUCAGGAUAUGCGAAUUUCAUCAAAAGAUGAAAUUUGCAGAAGGGACUAGAC [Omei Ex1 A28] (Eterna round: R97, puzzle: Exclusion 1) | 0.0266 | – | 0.0241 | – | – | –
27 | CAGUACUGAGGAUAUACAUGAGGAUCACCCAUGUGCUCUAGCUAGGAUACUAGCAUUAGUAGAAGGCAGUACUG [Fiskers Ex 3 828 mod 8] (puzzle: Exclusion 3) | – | – | – | – | 0.0152 | –
28 | ACAAGCAUUUAUCUUUUCAAAUAUUAUCGUCUUAUAAUUACAUGAGGAUCACCCAUGUAUAGAGGGUGAGAGAUACU [JR_Sensorv2_tov2_Sub552] (Eterna round: R96, puzzle: Sensor v2, turn-off variant 2) | 0.0611 | 0.121 | 0.0581 | – | – | –
29 | CAGUACUGAGGAUAUACAUGAGGAUCACCCAUGUGUUCCAGCUAGGAUACUAGCAAAGGAAGAAGGCAGUACUG [Mat - Exclusion 3 - Eli Mod - D2] (Eterna round: R97, puzzle: Exclusion 3) | 0.0194 | – | 0.0189 | – | – | –
30 | GGAAAGGUAGGAUAUACGAAGAAAAAGGGUAGAAUAAUAACACAUGAGGAUCACCCAUGUAGAAGGACCAAAGC [Mat - Exclusion 2 - Mod of my Tesla design - D13] (puzzle: Exclusion 2) | – | – | – | 0.0495 | 0.021 | 0.0254
31 | CCCUCACAUGAGGAUCACCCAUGUCAGGAUAUUCAAAGCGCAAAUGCGCCAAAUGCAGGAAGAAGGGACGUGCC [Bisoar] (puzzle: Exclusion 1) | – | – | – | – | 0.0133 | –
32 | AAGAAACAUGAGGAUCACCCAUGUGAGGAUAUGACAAAGAAAAGAAAAGAAAGAAGAUUCAGAAGGCACAAAGG [salish99-ex1_r3_036] (puzzle: Exclusion 1) | – | – | – | 0.0905 | 0.0536 | 0.0704
33 | UUUUUACAUGAGGAUCACCCAUGUGAGGAUAUGGAGCGCGACCGCGCGGUCGCGUACACCAGAAGGCGCAGGAU [1st #76] (Eterna round: R97, puzzle: Exclusion 1) | 0.0897 | – | 0.0466 | – | – | –
34 | AUUUGCACGCUGCGGUCCUACAUGAGGAUCACCCAUGUGGUCUGGUGGCGUGGGUCGCCGGACUUGGCUCGUCUUGU [salish99_S_TOV1_R5_033] (Eterna round: R97, puzzle: Sensor, turn-off variant 1) | 0.0187 | – | 0.0195 | – | – | –
